This is an account of results in patent US20230340152A1 (published 2023).

What all share (experiment): SPR (ProteOn), CD73 variant immobilized on HTG chip
Test [1] has as its target T1, Human CD73 K180A+N185G, His-tagged (human, UniProt P21589 27-549).
T1 chain: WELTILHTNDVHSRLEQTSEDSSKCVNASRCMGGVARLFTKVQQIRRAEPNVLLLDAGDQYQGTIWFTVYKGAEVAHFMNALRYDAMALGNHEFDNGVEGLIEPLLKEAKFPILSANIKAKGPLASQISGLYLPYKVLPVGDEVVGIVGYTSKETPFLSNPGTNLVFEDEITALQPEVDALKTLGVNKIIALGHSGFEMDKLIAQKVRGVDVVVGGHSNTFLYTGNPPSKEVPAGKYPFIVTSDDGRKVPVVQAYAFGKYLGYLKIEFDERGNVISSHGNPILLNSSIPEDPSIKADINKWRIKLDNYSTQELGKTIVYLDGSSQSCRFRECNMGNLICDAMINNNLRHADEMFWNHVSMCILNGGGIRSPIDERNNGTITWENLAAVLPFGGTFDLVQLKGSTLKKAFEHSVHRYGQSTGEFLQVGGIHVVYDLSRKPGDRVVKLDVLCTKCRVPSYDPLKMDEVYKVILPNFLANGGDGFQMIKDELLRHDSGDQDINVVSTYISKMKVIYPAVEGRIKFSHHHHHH
How it is done: (§1) Binding of MEDI9447 to wild-type and mutant CD73 proteins was measured by surface plasmon resonance (SPR) using a ProteOn instrument (BioRad). CD73 crude cell supernatant protein samples were diluted to 3 µg/ml in PBS, 0.005% Tween-20, pH 7.4 (BioRad) and immobilized to ~400 RU on a HTG tris-NTA sensor chip (BioRad) pre-activated with 10 mM NiSO₄, 10 mM MES, pH 6.0 (BioRad). An equivalently diluted crude cell supernatant sample from non-transfected cells was included as a reference channel control. Sensorgrams were recorded by flowing two-fold dilutions of MEDI9447 prepared in PBS, 0.005% Tween-20, pH 7.4, ranging from 5 nM to 0.31 nM. […] Antibody binding was measured at a flow rate of 100 µL/min with a 3 min association phase and 20 min dissociation phase. The sensor chip surface was regenerated between each run by an 800 s injection of 300 mM EDTA, pH 8.5 (BioRad) at a flow rate of 30 µL/min. Binding kinetics were analyzed using the ProteOn data analysis software. Double referencing was performed and, unless noted otherwise, a 1:1 Langmuir binding model was utilized to fit the data. Some CD73 variants containing mutations within the amino acid region 171-188 fit poorly to a 1:1 model (i.e., Chi² values >10% of Rmax). Where noted, these variants were fit with a heterogenous antigen (2:1) model. […] Due to the assay format (antigen immobilized) and the dimeric state of CD73, KD values may be exaggerated due to avidity effects. However, it is not anticipated that this impacts ranking of MEDI9447 binding to the different CD73 variants.

Another test has as its target T2, HDX_E1 CD73 chimera (human; chicken, UniProt P21589 27-553).
T2 chain: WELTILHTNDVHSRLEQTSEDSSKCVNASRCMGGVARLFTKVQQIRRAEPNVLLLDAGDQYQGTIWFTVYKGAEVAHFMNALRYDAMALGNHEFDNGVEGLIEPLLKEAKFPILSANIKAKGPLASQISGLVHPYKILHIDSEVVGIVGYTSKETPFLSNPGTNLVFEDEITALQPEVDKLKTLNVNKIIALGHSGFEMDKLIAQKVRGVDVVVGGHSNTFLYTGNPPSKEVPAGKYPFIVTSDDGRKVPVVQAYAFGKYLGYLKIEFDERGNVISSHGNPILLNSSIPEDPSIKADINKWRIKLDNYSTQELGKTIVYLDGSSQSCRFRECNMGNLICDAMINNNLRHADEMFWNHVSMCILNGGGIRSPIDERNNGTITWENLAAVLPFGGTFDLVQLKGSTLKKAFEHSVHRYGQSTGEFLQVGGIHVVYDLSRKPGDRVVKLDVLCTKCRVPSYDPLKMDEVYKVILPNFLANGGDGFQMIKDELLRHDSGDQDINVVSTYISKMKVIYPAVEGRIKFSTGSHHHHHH
How it is done:
as §1

For test [2], the target named is T3, Human CD73 V144K+N185G, His-tagged (human, UniProt P21589 27-549).
T3 chain: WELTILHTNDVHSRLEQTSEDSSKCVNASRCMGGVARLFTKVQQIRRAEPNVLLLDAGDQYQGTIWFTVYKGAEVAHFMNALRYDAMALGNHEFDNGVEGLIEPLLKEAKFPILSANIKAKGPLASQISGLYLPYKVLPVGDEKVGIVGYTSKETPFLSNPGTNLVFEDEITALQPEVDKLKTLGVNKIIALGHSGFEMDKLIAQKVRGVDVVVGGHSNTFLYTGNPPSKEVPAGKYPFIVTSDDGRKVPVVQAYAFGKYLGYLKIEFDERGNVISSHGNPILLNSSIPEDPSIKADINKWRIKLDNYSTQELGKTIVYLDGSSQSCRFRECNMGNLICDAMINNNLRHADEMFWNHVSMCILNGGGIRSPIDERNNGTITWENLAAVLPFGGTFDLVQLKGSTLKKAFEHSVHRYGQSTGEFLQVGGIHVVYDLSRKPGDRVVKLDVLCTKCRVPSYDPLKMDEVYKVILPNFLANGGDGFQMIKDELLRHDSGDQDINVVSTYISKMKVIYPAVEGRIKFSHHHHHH
The protocol: as §1

For test [3], the target named is T4, Human CD73 K180A, His-tagged (human, UniProt P21589 27-549).
T4 sequence: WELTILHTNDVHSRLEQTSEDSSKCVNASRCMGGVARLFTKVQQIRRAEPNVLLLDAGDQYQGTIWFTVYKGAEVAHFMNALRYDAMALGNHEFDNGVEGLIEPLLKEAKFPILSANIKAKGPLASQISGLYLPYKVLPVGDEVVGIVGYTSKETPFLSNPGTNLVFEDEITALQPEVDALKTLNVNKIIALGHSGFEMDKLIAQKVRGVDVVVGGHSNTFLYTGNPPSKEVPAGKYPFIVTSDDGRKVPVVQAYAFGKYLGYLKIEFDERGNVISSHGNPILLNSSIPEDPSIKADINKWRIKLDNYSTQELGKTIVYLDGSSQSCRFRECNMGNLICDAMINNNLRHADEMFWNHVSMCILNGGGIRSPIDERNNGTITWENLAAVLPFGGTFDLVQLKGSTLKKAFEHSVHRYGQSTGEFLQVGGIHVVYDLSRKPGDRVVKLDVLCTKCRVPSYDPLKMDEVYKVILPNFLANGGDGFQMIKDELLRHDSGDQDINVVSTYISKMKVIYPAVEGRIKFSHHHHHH
How it is done:
as §1

B1: MEDI9447 (antibody, human IgG1, lambda, V domains shown)
VH: EVQLLESGGGLVQPGGSLRLSCAASGFTFSSYAYSWVRQAPGKGLEWVSAISGSGGRTYYADSVKGRFTISRDNSKNTLYLQMNSLRAEDTAVYYCARLGYGRVDEWGRGTLVTVSS
VL: QSVLTQPPSASGTPGQRVTISCSGSLSNIGRNPVNWYQQLPGTAPKLLIYLDNLRLSGVPDRFSGSKSGTSASLAISGLQSEDEADYYCATWDDSHPGWTFGGGTKLTVLG
notes: Human IgG1-TM (L234F, L235E, P331S), lambda light chain; also called clone 10.3 antibody; 73combo3
As usually defined, the Kd is the equilibrium constant for the complex coming apart. A lower Kd goes with tighter binding. A word on the koff: it is a measure of how fast the partners let go of each other. Low values mean slow dissociation, high ones fast dissociation. By kon is commonly meant the rate constant with which the complex forms. A lower kon goes with slower complex formation. As for B1, the binding result in test [1] is “no binding”. In the test with HDX_E1 CD73 chimera, binding was put at a Kd of 9.9 pM, the dissociation rate constant (koff) amounted to 2.12e-05 s⁻¹ and the kon amounted to 2.15e+06 M⁻¹ s⁻¹. Also, in test [2], the binding result is reported as “no binding”. In test [3], this molecule showed a koff of 0.000154 s⁻¹ and a kon of 3.45e+06 M⁻¹ s⁻¹.
